For assay [1], the system named is HMM-mfMSR1 (monkey MSR1 extracellular domain). Nature of the assay: OCTET bio-layer interferometry binding kinetics of anti-MSR1 mAbs. The conditions noted are these: 25° C., analyte HMM-mfMSR1, NB = no binding observed. Here is the method:
(§1) Binding affinities and kinetic constants of human anti-MSR1 antibodies for different MSR1 reagents were determined using a real time, label-free bio-layer interferometry assay on an OCTET® HTX biosensor platform (Pall FortéBio Corp., Menlo Park, CA). The experiment was performed at 25° C. in 10 mM HEPES, 150 mM NaCl, 3 mM EDTA, 0.05% v/v Surfactant Tween-20, and 1 mg/mL BSA, pH7.4 (HBS-EBT) buffer with the plate shaking at the speed of 1000 rpm. Binding studies were performed on human MSR1 extracellular domain expressed with a N-terminal nonahistidine tag (His9-hMSR1; R&D Systems, Cat #2708-MS), monkey MSR1 extracellular domain expressed with a N-terminal myc-myc-hexahistidine tag (HMM-mfMSR1; SEQ ID NO: 418), and mouse MSR1 extracellular domain expressed with a N-terminal nonahistidine tag (His9-mMSR1; R&D Systems, Cat #1797-MS). The anti-MSR1 monoclonal antibodies were captured by dipping either anti-human Fc (AHC) or anti-mouse Fc (AMC) Octet biosensors in wells containing 5 μg/mL or 10 μg/mL of anti-MSR1 monoclonal antibody for 45-90 seconds. The AHC captured anti-MSR1 monoclonal antibodies were then dipped in wells containing 50 nM of His9-mMSR1, while the AMC captured anti-MSR1 monoclonal antibodies were dipped in wells containing different concentrations of His9-hMSR1 or HMM-mfMSR1 (100 nM, 25 nM) or 100 nM His9-mMSR1. The binding of different MSR1 reagents to the captured anti-MSR1 monoclonal antibody was measured for 4 minutes and the dissociation of monoclonal antibody bound MSR1 reagent was monitored for 8-10 minutes in HBS-EBT buffer.
(§2) The association rate (ka) and dissociation rate (kd) were determined by fitting the real-time binding sensorgrams to a 1:1 binding model with mass transport limitation using Scrubber 2.0c curve-fitting software. Binding dissociation equilibrium constant (KD) and dissociative half-life (t½) were calculated from the kinetic rates as: […]
(§3) Binding kinetics parameters for His9-hMSR1, HMM-mfMSR1 or His9-mMSR1 binding to different anti-MSR1 monoclonal antibodies of the invention at 25° C. are shown in Tables 8 and 9.
On the technique in general: Biolayer interferometry detects binding as a change in optical thickness at a sensor tip.

Assay [2] deals with T1, His9-hMSR1 (human MSR1 extracellular domain) (Homo sapiens, UniProt P21757).
T1 construct: human MSR1 extracellular domain expressed with a N-terminal nonahistidine tag; His9 (nonahistidine) (N); purchased R&D Systems 2708-MS
T1 sequence (P21757 77-451 limits assumed): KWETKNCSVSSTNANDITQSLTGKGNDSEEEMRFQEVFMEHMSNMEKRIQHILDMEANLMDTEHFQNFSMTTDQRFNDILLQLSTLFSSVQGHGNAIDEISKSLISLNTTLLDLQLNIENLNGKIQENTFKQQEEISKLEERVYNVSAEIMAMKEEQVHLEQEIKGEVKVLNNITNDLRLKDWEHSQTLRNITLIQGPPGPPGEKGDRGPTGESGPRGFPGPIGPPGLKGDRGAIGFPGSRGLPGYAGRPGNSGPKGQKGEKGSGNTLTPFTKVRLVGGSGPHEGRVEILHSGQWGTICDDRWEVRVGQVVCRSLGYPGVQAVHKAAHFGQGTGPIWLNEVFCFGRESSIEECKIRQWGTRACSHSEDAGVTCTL
Described as above. The conditions noted are these: 25° C., analyte His9-hMSR1, NB = no binding observed. Here is the method: as §1, §2, §3

The target of assay [3] is T2, PMA-treated THP-1 cells (endogenously expressed human MSR1) (Homo sapiens, UniProt P21757).
T2 construct: endogenous in cells; host or cells: THP-1 cells differentiated with PMA
T2 sequence (P21757 1-451): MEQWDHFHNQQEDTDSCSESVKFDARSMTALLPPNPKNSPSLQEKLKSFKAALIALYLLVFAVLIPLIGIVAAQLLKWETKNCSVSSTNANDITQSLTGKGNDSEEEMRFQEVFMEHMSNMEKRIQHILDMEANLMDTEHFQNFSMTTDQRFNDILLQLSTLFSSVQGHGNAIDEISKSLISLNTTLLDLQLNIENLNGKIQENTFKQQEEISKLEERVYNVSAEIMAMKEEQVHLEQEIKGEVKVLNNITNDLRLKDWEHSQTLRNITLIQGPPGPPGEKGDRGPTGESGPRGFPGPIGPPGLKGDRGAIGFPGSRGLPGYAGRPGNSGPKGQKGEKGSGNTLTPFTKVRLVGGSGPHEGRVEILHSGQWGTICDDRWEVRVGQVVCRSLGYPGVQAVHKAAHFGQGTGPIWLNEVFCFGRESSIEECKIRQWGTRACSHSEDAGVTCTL
Nature of the assay: Electrochemiluminescence antibody binding assay on MSR1-expressing cells. The class given is cell-based.

Another assay has as its system parental HEK293 cells. The assay is described as follows: Electrochemiluminescence antibody binding assay, non-specific binding control cells. Type of assay: cell-based, human.
The target in assay [4] is T3, MSR1-mediated Dil-AcLDL uptake in HEK293.Myc.hMSR1 cells (Homo sapiens, UniProt P21757).
T3 construct: expressed in transfected cells; host or cells: HEK293 (lentiviral transduction, hygromycin selection)
T3 sequence (P21757 1-451): T2 sequence (P21757 1-451)
The assay is described as follows: Ligand uptake assay, Dil-AcLDL. Type of assay: cell-based. The conditions noted are these: 10 μg/mL Dil-AcLDL. As to the method:
A bioassay was generated to assess the ability of the exemplary anti-MSR1 antibodies to regulate the uptake of certain MSR1 ligands.
Generation of MSR1-expressing cell lines for assay. […] The resulting cell line, referred to here as “HEK293.Myc.hMSR1”, was selected and maintained in DMEM containing 10% FIBS, NEAA, penicillin/streptomycin, L-glutamine, and 100 μg/mL hygromycin.
Ligand uptake assay. […] After 30 minutes, either oxidized or acetylated low-density lipoprotein (LDL) labeled with 1,1′dioctadecyl-3,3,3′,3′-tetramethylindocarbocyanine perchlorate (referred to as “Dil-OxLDL” or “Dil-AcLDL,” respectively) was added to the cells at a constant concentration of 10 μg/mL. […] Results were analyzed using nonlinear regression (4-parameter logistics) with the Prism 7 program to obtain EC50 and IC50 values. The percentage of inhibition was calculated with the Relative Fluorescent Unit (RFU) values by using the following equation: […]
In the equation, “RFUBaseline” is the fluorescence value from the cells treated with 10 μg/mL ligand without antibodies, “RFUInhibition” is the minimum fluorescence value with for a particular antibody with 10 μg/mL ligand, and “RFUBackground” is the fluorescence value from cells without any ligand or antibodies.

HMM-mfMSR1 (monkey MSR1 extracellular domain), sequence (as listed by the source): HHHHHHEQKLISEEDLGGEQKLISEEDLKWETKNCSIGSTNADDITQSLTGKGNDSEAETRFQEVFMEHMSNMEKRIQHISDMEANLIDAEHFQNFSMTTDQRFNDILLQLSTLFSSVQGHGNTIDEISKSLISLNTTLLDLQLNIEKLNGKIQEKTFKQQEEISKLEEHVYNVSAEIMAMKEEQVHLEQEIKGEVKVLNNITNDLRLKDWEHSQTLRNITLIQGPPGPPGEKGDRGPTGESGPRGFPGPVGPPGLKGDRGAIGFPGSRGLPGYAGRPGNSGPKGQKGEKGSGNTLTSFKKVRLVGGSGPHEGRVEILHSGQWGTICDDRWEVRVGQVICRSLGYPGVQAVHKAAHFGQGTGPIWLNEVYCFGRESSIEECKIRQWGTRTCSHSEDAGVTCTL

B1: H2aM25695N: one of "Twelve anti-MSR1 antibodies"; "an “H2aM” antibody has a mouse IgG2a Fc" (antibody, V domains shown)
VH: QVQLQESGPGLVKPSETLSLTCTVTGGSISRNYWSWIRQPPGKGLEWIGYIYYSGSINYNPSLKSRVTISVDMSKNQFSLKLNSVTAADTAVYYCARDRWNWKYGMDVWGQGTTVIVSS
VL: EIVLTQSPGTLSLSPGERATLSCRASQTVRNSYLAWYHQKPGQAPRLLIYGASSRATGIPDRFSGSGSGTDFTLTISRLEPEDFAVYYCQQYGSSYWTFGQGTKMEIKR
Turning to B1, the ka in assay [1] was 312000 M⁻¹ s⁻¹; in assay [2], 360000 M⁻¹ s⁻¹. Besides, the results for the kd in assay [1] and in assay [2] were 0.000571 s⁻¹ and 0.000527 s⁻¹, respectively. For the same molecule, the “Ratio of 11 nM Antibody Binding Signal (RLU) to isotype control, PMA-treated THP-1” value in assay [3] stood at 8. Besides, the “Ratio of 11 nM Antibody Binding Signal (RLU) to isotype control, HEK293” value in the assay with parental HEK293 cells is on record as 5.

B2: H2aM21229N: one of "Twelve anti-MSR1 antibodies"; "an “H2aM” antibody has a mouse IgG2a Fc" (antibody, V domains shown)
VH: EVQLVESGGGLVKPGGSLRLSCAASGFTFSRYSMNWVRQAPGKGLEWVSSISSSSSYIYYGDTVKGRFTISRDNAKKSLYLQMNSLRAEDTAVYYCVRDRGQLVLYFDYWGQGTLVTVSS
VL: DIQMTQSPASLSTSIRDRVTITCRASLSISSFLNWFQQRPGKAPKLLIYVASNLQSGVPSRFSDSGSGTDFTLTISSLQPEDFATYYCQQNYSTPPITFGQGTRLEIK
Consider B2, for which, in assay [1], the ka was 135000 M⁻¹ s⁻¹ and the kd came to 0.00222 s⁻¹. In addition, in assay [2], the ka stood at 300000 M⁻¹ s⁻¹ and the kd amounted to 0.00021 s⁻¹. Moreover, the “Ratio of 11 nM Antibody Binding Signal (RLU) to isotype control, PMA-treated THP-1” value in assay [3] was 56. Further, the “Ratio of 11 nM Antibody Binding Signal (RLU) to isotype control, HEK293” value in the assay with parental HEK293 cells was 36. In addition, in assay [4], the “Dil-Acetylated LDL IC50” value is reported as “no inhibition” and the “maximum inhibition of Dil-AcLDL uptake” value is on record as “no inhibition”. Also, the “Dil-Acetylated LDL % Inhibition” value in assay [4] (maximum inhibition) was “no inhibition”.

For the origin of these results see patent publication US12497460B2, “Anti-MSR1 antibodies and methods of use thereof” (REGENERON PHARMACEUTICALS, INC., priority 2018, dated 2025).
